{"source": "paper PMC7954794", "about": "“Protein context shapes the specificity of SH3 domain-mediated interactions in vivo” (Nature Communications, 2021)", "test_system": "Abp1 PPIs", "assay": "DHFR-PCA of Abp1 SH3-swapped baits (Fig. 2B-D, S2C, S2F);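 for Protein-protein interaction distance between Abp1 SH3-swapped baits, to ABP1: Euclidean distance between DHFR-PCA score profiles of the baits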;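 for Protein-protein interaction distance between Abp1 SH3-swapped baits, to BEM1-2: Euclidean distance between DHFR-PCA score profiles of the baits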;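 for Protein-protein interaction distance between Abp1 SH3-swapped baits, to BOI1: Euclidean distance between DHFR-PCA score profiles of the baits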;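 for Protein-protein interaction distance between Abp1 SH3-swapped baits, to BZZ1-1: Euclidean distance between DHFR-PCA score profiles of the baits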", "assay_type": "cell-based, Saccharomyces cerevisiae", "procedure,_shortened": "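Yeast DHFR-PCA in which Abp1 baits, carrying their SH3 replaced by CRISPR–Cas9 with one of 27 yeast SH3s or human CTTN, HCLS1 or DBNL SH3s, were mated against 575 SH3-associated DHFR F[3] preys plus 40 negative controls. Four tests were run per PPI. Diploids were selected twice (48 h, 30 °C), then grown 4 days on PCA selection media.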", "key": {"[1]": {"conditions": "number of PPIs, difference, Abp1 SH3-swapped with the listed SH3, Fig2D,S2F"}}}
{"molecule": "MYO5 (protein, UniProt Q04439 1-1219, looked up) Myosin-5: MAILKRGARKKVHQEPAKRSANIKKATFDSSKKKEVGVSDLTLLSKISDEAINENLKKRFLNATIYTYIGHVLISVNPFRDLGIYTDAVMNEYKGKNRLEVPPHVFAIAESMYYNMKSYNENQCVIISGESGAGKTEAAKRIMQYIAAASSTHTESIGKIKDMVLATNPLLESFGCAKTLRNNNSSRHGKYLEIKFNNQFEPCAGNITNYLLEKQRVVSQIKNERNFHIFYQFTKGASDAYRQTFGVQKPEQYVYTAAAGCISAETIDDLQDYQETLKAMRVIGLGQEEQDQIFRMLAAILWIGNVSFIENEEGNAQVRDTSVTDFVAYLLQIDSQLLIKSLVERIMETNHGMKRGSVYHVPLNIVQADAVRDALAKAIYNNLFDWIVSRVNKSLQAFPGAEKSIGILDIYGFEIFEHNSFEQICINYVNEKLQQIFIQLTLKSEQETYEREKIQWTPIKYFDNKVVCDLIEARRPPGIFAAMNDSVATAHADSNAADQAFAQRLNLFTTNPHFDLRSNKFVIKHYAGDVTYDIDGITDKNKDQLQKDLVELIGTTTNTFLATIFPDTVDRESKRRPPTAGDKIIKSANDLVETLSKAQPSYIRTIKPNETKSPNDYDDRQVLHQIKYLGLQENVRIRRAGFAYRQVFEKFVERFYLLSPHCSYAGDYTWQGDTLDAVKYILQDSSIPQQEYQLGVTSVFIKTPETLFALEHMRDRYWHNMAARIQRAWRRFLQRRIDAATKIQRTIRERKEGNKYEKLRDYGTKVLGGRKERRSMSLLGYRAFMGDYLSCNESKSKGAYIKRQVSIKEKVIFSIHGEALHTKFGRSAQRLKKTFLLTPTTLYIVGQTLVQNAMTYTQDYKIDVRNIQAVSLTNLQDDWVAIKLASSGQPDPLINTYFKTELITHLKRLNDKIQIKIGSAIEYQKKPGKLHSVKCQINESAPKYGDIYKSSTISVRRGNPPNSQVHKKPRKKSSISSGYHASSSQATRRPVSIAAAQHVPTAPASRHSKKPAPPPPGMQNKAATRRSVPNPASTLTASQSNARPSPPTAATRATPAATPAAAAMGSGRQANIPPPPPPPPPSSKPKEPMFEAAYDFPGSGSPSELPLKKGDVIYITREEPSGWSLGKLLDGSKEGWVPTAYMKPHSGNNNIPTPPQNRDVPKPVLNSVQHDNTSANVIPAAAQASLGDGLANALAARANKMRLESDDEEANEDEEEDDW", "values": [{"measurement": "Protein-protein interaction distance between Abp1 SH3-swapped baits, to ABP1", "setting": "Abp1 bait with swapped SH3, distance to bait with ABP1 SH3, sheet Fig2C", "value": 12.37}, {"measurement": "Protein-protein interaction distance between Abp1 SH3-swapped baits, to BBC1", "setting": "distance to Abp1 bait with BBC1 SH3, sheet Fig2C", "value": 12.56}, {"measurement": "Protein-protein interaction distance between Abp1 SH3-swapped baits, to BEM1-1", "setting": "distance to Abp1 bait with BEM1-1 SH3, sheet Fig2C", "value": 17.04}, {"measurement": "Protein-protein interaction distance between Abp1 SH3-swapped baits, to BEM1-2", "setting": "distance to Abp1 bait with BEM1-2 SH3, sheet Fig2C", "value": 34.62}, {"measurement": "Protein-protein interaction distance between Abp1 SH3-swapped baits, to BOI1", "setting": "distance to Abp1 bait with BOI1 SH3, sheet Fig2C", "value": 14.33}, {"measurement": "Protein-protein interaction distance between Abp1 SH3-swapped baits, to BOI2", "setting": "distance to Abp1 bait with BOI2 SH3, sheet Fig2C", "value": 17.59}, {"measurement": "Protein-protein interaction distance between Abp1 SH3-swapped baits, to BUD14", "setting": "distance to Abp1 bait with BUD14 SH3, sheet Fig2C", "value": 20.27}, {"measurement": "Protein-protein interaction distance between Abp1 SH3-swapped baits, to BZZ1-1", "setting": "distance to Abp1 bait with BZZ1-1 SH3, sheet Fig2C", "value": 9.674}, {"measurement": "Protein-protein interaction distance between Abp1 SH3-swapped baits, to BZZ1-2", "setting": "distance to Abp1 bait with BZZ1-2 SH3, sheet Fig2C", "value": 13.83}, {"measurement": "Protein-protein interaction distance between Abp1 SH3-swapped baits, to CDC25", "setting": "distance to Abp1 bait with CDC25 SH3, sheet Fig2C", "value": 28.8}, {"measurement": "Protein-protein interaction distance between Abp1 SH3-swapped baits, to CTTN", "setting": "distance to Abp1 bait with CTTN SH3, sheet Fig2C", "value": 14.85}, {"measurement": "Protein-protein interaction distance between Abp1 SH3-swapped baits, to CYK3", "setting": "distance to Abp1 bait with CYK3 SH3, sheet Fig2C", "value": 29.49}, {"measurement": "Protein-protein interaction distance between Abp1 SH3-swapped baits, to DBNL", "setting": "distance to Abp1 bait with DBNL SH3, sheet Fig2C", "value": 9.722}, {"measurement": "Protein-protein interaction distance between Abp1 SH3-swapped baits, to FUS1", "setting": "distance to Abp1 bait with FUS1 SH3, sheet Fig2C", "value": 21.47}, {"measurement": "Protein-protein interaction distance between Abp1 SH3-swapped baits, to HCLS1", "setting": "distance to Abp1 bait with HCLS1 SH3, sheet Fig2C", "value": 10.37}, {"measurement": "Protein-protein interaction distance between Abp1 SH3-swapped baits, to HOF1", "setting": "distance to Abp1 bait with HOF1 SH3, sheet Fig2C", "value": 33.29}, {"measurement": "Protein-protein interaction distance between Abp1 SH3-swapped baits, to HSE1", "setting": "distance to Abp1 bait with HSE1 SH3, sheet Fig2C", "value": 10.84}, {"measurement": "Protein-protein interaction distance between Abp1 SH3-swapped baits, to LSB1", "setting": "distance to Abp1 bait with LSB1 SH3, sheet Fig2C", "value": 7.822}, {"measurement": "Protein-protein interaction distance between Abp1 SH3-swapped baits, to LSB3", "setting": "distance to Abp1 bait with LSB3 SH3, sheet Fig2C", "value": 8.063}, {"measurement": "Protein-protein interaction distance between Abp1 SH3-swapped baits, to MYO3", "setting": "distance to Abp1 bait with MYO3 SH3, sheet Fig2C", "value": 5.861}, {"measurement": "Protein-protein interaction distance between Abp1 SH3-swapped baits, to MYO5", "setting": "distance to Abp1 bait with MYO5 SH3, sheet Fig2C", "value": 0.00}, {"measurement": "Protein-protein interaction distance between Abp1 SH3-swapped baits, to NBP2", "setting": "distance to Abp1 bait with NBP2 SH3, sheet Fig2C", "value": 19.41}, {"measurement": "Protein-protein interaction distance between Abp1 SH3-swapped baits, to PEX13", "setting": "distance to Abp1 bait with PEX13 SH3, sheet Fig2C", "value": 7.969}, {"measurement": "Protein-protein interaction distance between Abp1 SH3-swapped baits, to PIN3", "setting": "distance to Abp1 bait with PIN3 SH3, sheet Fig2C", "value": 6.67}, {"measurement": "Protein-protein interaction distance between Abp1 SH3-swapped baits, to RVS167", "setting": "distance to Abp1 bait with RVS167 SH3, sheet Fig2C", "value": 7.689}, {"measurement": "Protein-protein interaction distance between Abp1 SH3-swapped baits, to SDC25", "setting": "distance to Abp1 bait with SDC25 SH3, sheet Fig2C", "value": 35.29}, {"measurement": "Protein-protein interaction distance between Abp1 SH3-swapped baits, to SHO1", "setting": "distance to Abp1 bait with SHO1 SH3, sheet Fig2C", "value": 10.26}, {"measurement": "Protein-protein interaction distance between Abp1 SH3-swapped baits, to SLA1-1", "setting": "distance to Abp1 bait with SLA1-1 SH3, sheet Fig2C", "value": 31.36}, {"measurement": "Protein-protein interaction distance between Abp1 SH3-swapped baits, to SLA1-2", "setting": "distance to Abp1 bait with SLA1-2 SH3, sheet Fig2C", "value": 22.13}, {"measurement": "Protein-protein interaction distance between Abp1 SH3-swapped baits, to SLA1-3", "setting": "distance to Abp1 bait with SLA1-3 SH3, sheet Fig2C", "value": 7.257}, {"measurement": "Protein-protein interaction distance between Abp1 SH3-swapped baits, to YSC84", "setting": "distance to Abp1 bait with YSC84 SH3, sheet Fig2C", "value": 8.128}, {"measurement": "PPIs gained by Abp1 - SH3-dependent PPIs gained by Abp1", "setting": "[1]", "value": 27}, {"measurement": "SH3-dependent PPIs - SH3-dependent PPIs gained by Abp1", "setting": "[1]", "value": 16}, {"measurement": "SH3-dependent PPIs gained by Abp1", "setting": "number of PPIs, Abp1 SH3-swapped with the listed SH3, DHFR-PCA, Fig2D,S2F", "value": 3}]}
